Target: GST-OGG1F319A (Homo sapiens, UniProt O15527 1-345, F319A)
Experiment: EMSA

GST-OGG1F319A, sequence (O15527 whole entry F319A): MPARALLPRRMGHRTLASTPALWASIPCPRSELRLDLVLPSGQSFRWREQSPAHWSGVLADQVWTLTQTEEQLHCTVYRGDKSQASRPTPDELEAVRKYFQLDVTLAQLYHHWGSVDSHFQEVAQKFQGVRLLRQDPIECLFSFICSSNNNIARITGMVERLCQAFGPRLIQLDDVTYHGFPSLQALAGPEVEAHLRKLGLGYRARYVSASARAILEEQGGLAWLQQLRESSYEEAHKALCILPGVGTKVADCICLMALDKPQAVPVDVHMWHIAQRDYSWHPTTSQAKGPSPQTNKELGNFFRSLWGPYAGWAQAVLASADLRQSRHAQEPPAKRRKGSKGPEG

B1: 8-oxoGua duplex probe (Table S1) (dsDNA)
DNA 1: AGAGAAGAAGAAGAAGAAGAGATGGGTTATTCGAACTAGC
DNA 2: GCTAGTTCGAATAACCCATCTCTTCTTCTTCTTCTTCTCT
modifications: 8-oxoguanine at position 19 of strand 1 (printed X, written as G)
**Q.** Does B1 bind?
**A.** no binding
